Test results taken from patent publication US20260234247A1 (published 2026).
Changes are numbered by the printed parent chain.

B1: LK-RB2-30 (antibody, human IgG4 S228P, kappa, V domains shown)
VH: EVQLVESGGGLVQPGGSLKLSCAASGFTFNTDGMSWVRQTPDKRLELVAIINSNGGSTYYPDSVKGRFTISRDNAKNTLYLQMSSLKSEDTAMYYCAREGSYGSWFAYWGQGTLVTVSA
VL: DIQMTQSPASLSVSVGETVTITCRASENINNNLAWYHQKQGKSPQLLVYAATNLADGVPSRFSGSGSGTQYSLKINSLQSEDFGSYYCQHFWGTPFTFGGGTKLEIKR
B2: LK-RB2-27 (antibody, human IgG4 S228P, kappa, V domains shown)
VH: DVKLVESGGGLVKPGGSLKLSCAASGFTFSSYSMSWVRQTPEKRLEWVATISTGGSYTYYPDSVKGRFTISRDNAKNTLYLQMSSLKSEDTAMFYCTRGSMDYWGQGTSVTVSS
VL: DILMTQSPSSMSVSLGDTVSITCHASQDISSNIGWLQQKPGNSFKGLIYHGTNLEDGVPSRFSGSGSGADYSLTISSLESEDFADYYCVQYAQFPYTFGGGTKLEIKR
B3: LK-RB2-34 (antibody, human IgG4 S228P, kappa, V domains shown)
VH: B2 VH with L4V, G55S, P61S
VL: B2 VL with T52I
B4: LK-RB2-28 (antibody, human IgG4 S228P, kappa, V domains shown)
VH: B2 VH with V64M
VL: B2 VL with T22A
B5: LK-RB2-20 (antibody, human IgG4 S228P, kappa, V domains shown)
VH: QVQLKQPGAERVKPGASVKMSCKASGYTFTRYWITWVKQRPGQGLEWIGDIYPGSATTNYNEKFKSKATLTEDTSSSTAYMQLSSLTSEDSAVYYCARSGDYSNSNYAMDYWGQGTSVTVSS
VL: NIEMTQSPKSMSMAVGERVTLSCKASENVGTYVSWYQQKPEQSPKLLIYGASNRNTGVPDRFTGSGSATDFTLTISSVQAEDLADYHCGQSYSYPFTFGSGTKLEIKR
B6: LK-RB2-13 (antibody, human IgG4 S228P, kappa, V domains shown)
VH: QIQLVQSGPELKKPGETVKISCKASGYTFTTYGMSWVKQAPGKGLQWMGWINTYSGVPTFADDFKGRFAFSLDTSASTAYLQINNLKNEDTATYFCARRINWDGYAMDYWGQGTSVTVSS
VL: DSVMSQSPSSLAVSVGEKVTMSCKSSQSLLYSGNQKSYLAWYQQKPGQSPKLLIYWASTRESGVPDRFTGSGSGTDFTLTISSVKAEDLAVYYCQQYYSYPYTFGGGTKLEIKR
B7: LK-RB2-17 (antibody, human IgG4 S228P, kappa, V domains shown)
VH: B6 VH with T31N, K65R, N85S, T93A
VL: B6 VL with M21L, T59S, Y100F
B8: p1E1 (antibody, human IgG4 S228P, kappa, V domains shown)
VH: EVQLQQWGAGLLKPSETLSLTCAVYGGSFSGYYWSWIRQPPGKGLEWIGEINHSGSTNYNPSLKSRVTISVDTSKNQFSLKLSSVTAADTAVYYCARLPTRWVTTRYFDLWGRGTLVTVSS
VL: ESVLTQPPSVSGAPGQRVTISCTGSSSNIGAGYDVHWYQQLPGTAPKLLIYGNSNRPSGVPDRFSVSKSGASASLAITGLQAEDEADYYCQSFDNSLSAYVFGGGTQLTVLG
B9: LK-RB2-39 (antibody, human IgG4 S228P, kappa, V domains shown)
VH: DVKLVESGGGSVQPGGSLKLSCAASGFTFSDYYMYWVRQTPEKRLEWVAYISNGGGNTYYPDTVKGRFTISRDNAKNTLYLQMSRLKSEDTAMYYCARSNWAWYFDVWGTGTTVTVSS
VL: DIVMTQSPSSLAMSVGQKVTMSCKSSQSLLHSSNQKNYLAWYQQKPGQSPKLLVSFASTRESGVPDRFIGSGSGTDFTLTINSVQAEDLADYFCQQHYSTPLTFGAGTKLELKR
B10: LK-RB2-38 (antibody, human IgG4 S228P, kappa, V domains shown)
VH: B9 VH with D1E, S11L, T28S, T78S, A92G, S99D, N100R, W101E, A102D
VL: DIVMTQSHTFMSTSVGDRVSITCKASQDVSTAVAWYQQKPGQSPKLLIYWASTRHTGVPDRFTGSGSGTDYTLTISSVQAEDLALYYCQQHYSTPRTFGGGTKLEIKR
B11: LK-RB2-25 (antibody, human IgG4 S228P, kappa, V domains shown)
VH: QVQLKESGPGLVAPSQSLSITCTVSGFSLTSYGVHWVRQPPGKGLEWLGVIWAGGSTKYNSALMSRLSINKDNSKSQVFLKMNSLQTDDTAMYYCARDQMVRSAMDYWGQGTSVTVSS
VL: DIQMIQSPSSMFASLGDRVSLSCRASQGIRGNLDWYQQKPGGTIKLLIYSTSNLNSAVPSRFSGSGSGSDYSLTISNLESEDFADYYCLQRNASPYTFGGGTKLEIKR
B12: LK-RB2-46 (antibody, human IgG4 S228P, kappa, V domains shown)
VH: QVQMQQSDAELVKPGASVKISCKVSGYTFTDQIIHWMKQRPEQGLEWIGYIYPRDDSIMYNEKFKGKATLTADKSSSTANMQLNSLTSEDSAVYFCAYDAYWYFDVWGTGTTVIVSS
VL: DIVMTQSHKFMSASVGDRVSITCKASQDVNTAVAWYRQDPGQSPKLLIYWASTRHTGVPDRFTGSGSGTDYTLTINNFQAEDLALYYCQQHYSPPLTFGAGTKLELKR
B13: LK-RB2-7 (antibody, human IgG4 S228P, kappa, V domains shown)
VH: DVKLVESGEGLVKPGGSLKLSCAASGFTFSSYAMSWVRQTPEMRLEWVAYISSGGDHFYYADTVKGRFTISRDNARSTLYLQMSSLKSEDTAMYYCTREGASYDSNFLAWFAYWGQGTLVTVSA
VL: DIQMTQSPASLSVSVGETVTITCRASENIYSNLAWYQQKEGKSPQLLVYGATNLADGVPSRFSGSGSGTQYSLKINSLQSEDFGSYYCQNFWDIPLTFGAGTKLELKR
B14: LK-RB2-9 (antibody, human IgG4 S228P, kappa, V domains shown)
VH: DVQLQESGPGLVKPSQSLSLTCSVTGYSITSGYYWNWIRQFPGNKLEWMGYIGYDGNNNYNPSLKNRISITRDTSKNQFFLKLNSLTTEDTATYYCAREGSTMVTSWFAYWGQGTLVTVSA
VL: B1 VL with N30Y, N31S, H37Q, A50G, S65R, G68D, G93D, F96Y
B15: LK-RB2-18 (antibody, human IgG4 S228P, kappa, V domains shown)
VH: EVQLQQSGPELVKPGTSVKISCKASGYTFTDYYMNWVKQSHGKSLEWIGDINPNNGGTSYNQKFKGKATLTVDKSSSTAYMELRSLTSEDSAVFYCARSGTTVVGTYWYFDVWGTGTTVTVSS
VL: B1 VL with N30Y, N31S, H37Q, A50G, G93D, G100S
B16: LK-RB2-11 (antibody, human IgG4 S228P, kappa, V domains shown)
VH: QIQLVQSGPELKKPGETVKISCKASGYSFITYGMSWVKQAPGKGLKWMGWINTYSGEPTYGDDFMGRFAFSLETSASTAYLQINNLKNEDTASYFCARYHYDDGMDYWGQGTSVTVSS
VL: DIKMTQSPSSMYASLGERVTITCKASQDINNYLSWFQQKPGKSPKTLIFRANRLVDGVPSRFSGSGSGQDYSLTISSLEDEDMGIYYCLQYDEFPWMFGGGTKLEIER
B17: LK-RB2-29 (antibody, human IgG4 S228P, kappa, V domains shown)
VH: QVQLQQSGAELARPGASVKLSCKASGYTFTSYWMQWVKQRPGQGLEWIGAIYPGDGDTRYTQKFKGKATLTADKSSSTAYMQLSSLASEDSAVYYCARGYYGSSYADYFDYWGQGTTLTVSS
VL: DIQMTQSPASLSASVGETVTITCRASGNIHNYLAWYQQKQGKSPQLLVYNAKTLADGVPSRFSGSGSGTQYSLKINSLQPEDFGSYYCQHFWSTPPTFGGGTKLEIKR
B18: LK-RB2-31 (antibody, human IgG4 S228P, kappa, V domains shown)
VH: QVQLQQPGAELVKPGASMKLSCKASGYTFTTYYMYWVKQRPGLGLEWIGGINPSNGGTTFNEKFKNKATLTVDKSSSTAYMQLRSLTSEDSAVYYCTRWRFFDVWGAGTTVTVSS
VL: SIVMTQTPEFLLVSAGDRVTITCKASQSVNNDVAWFQQKPGQSPKLLIYYASNRYTGVPDRFTGSGYGTDFTFTISTVQAEDLAIYFCQQDYSSPPTFGGATKLEIKR
B19: LK-RB2-10 (antibody, human IgG4 S228P, kappa, V domains shown)
VH: EVMLVESGGDLVKPGGSLKLSCAASGFTFSANTVSWLRRTPERRLEWVATISGGSDNTYCPDSVKGRFTISRDNARDTLYLQMSSLTSEDTALYFCARHYYDGPNWYFDVWGPGTTVTVSS
VL: DIVMTQSQKFMSSTGGDRVTITCKASQNVDTAVAWYQQKPGQSPKLLIYSASNRYIGVPDRFKGSGSGTDFSLTITNIQSEDLAEYFCQQYSSYPLTFGAGTKLELKR
B20: LK-RB2-47 (antibody, human IgG4 S228P, kappa, V domains shown)
VH: QVQLKQSGPGLVQPSQSLSITCTVSGFSLISYGVHWVRQSPGKGLEWLGVIWSGGSTDYNAAFISRLSISKDNSKSQVFFKMNSLQADDTAIYYCARSFHYHGSTFDYWGQGTTLTVSS
VL: DIQMTQTTSSLSASLGDRVIISCRASQDINNYLNWYQQKPDGTVKLLIYFTSRLHSGVPSSFSGSGSGTDYSLTINNLEQEDIATYFCQQVNTLPYTFGGGTKLEIKR
B21: LK-RB2-43 (antibody, human IgG4 S228P, kappa, V domains shown)
VH: EVQLVESGGDLVKPGGSLKLSCAASGFTFSSYGMSWVRQTPDKRLEWVATISGGGTYTYYPDSVKGRFTISRDNAKNTLYLQMSSLKSEDTAMYYCASGAMDYWGQGTSVTVSS
VL: QIVLTQSPAILSASPGEKVTMTCSANSSVSSMYKYQQKPGSSPKPWIYGTSNLASGVPARFSGSGSGTSYSLTISSMEAADAATYYCQQYHSHPLTFGAGTKLELKR
B22: LK-RB2-44 (antibody, human IgG4 S228P, kappa, V domains shown)
VH: B21 VH
VL: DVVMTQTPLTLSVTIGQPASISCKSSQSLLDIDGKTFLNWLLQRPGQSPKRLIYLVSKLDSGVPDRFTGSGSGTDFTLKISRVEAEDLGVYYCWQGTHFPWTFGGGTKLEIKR

Key:
[1] = target: T1, human LILRB1 expressed on CHOK1 cells (CHOK1-hLILRB1) (human, UniProt Q8NHL6 24-650); assay: FACS binding to CHOK1-hLILRB1 cells
T1 construct: whole, on cells; also called CHOK1-LILRB1
T1 sequence (Q8NHL6 24-650): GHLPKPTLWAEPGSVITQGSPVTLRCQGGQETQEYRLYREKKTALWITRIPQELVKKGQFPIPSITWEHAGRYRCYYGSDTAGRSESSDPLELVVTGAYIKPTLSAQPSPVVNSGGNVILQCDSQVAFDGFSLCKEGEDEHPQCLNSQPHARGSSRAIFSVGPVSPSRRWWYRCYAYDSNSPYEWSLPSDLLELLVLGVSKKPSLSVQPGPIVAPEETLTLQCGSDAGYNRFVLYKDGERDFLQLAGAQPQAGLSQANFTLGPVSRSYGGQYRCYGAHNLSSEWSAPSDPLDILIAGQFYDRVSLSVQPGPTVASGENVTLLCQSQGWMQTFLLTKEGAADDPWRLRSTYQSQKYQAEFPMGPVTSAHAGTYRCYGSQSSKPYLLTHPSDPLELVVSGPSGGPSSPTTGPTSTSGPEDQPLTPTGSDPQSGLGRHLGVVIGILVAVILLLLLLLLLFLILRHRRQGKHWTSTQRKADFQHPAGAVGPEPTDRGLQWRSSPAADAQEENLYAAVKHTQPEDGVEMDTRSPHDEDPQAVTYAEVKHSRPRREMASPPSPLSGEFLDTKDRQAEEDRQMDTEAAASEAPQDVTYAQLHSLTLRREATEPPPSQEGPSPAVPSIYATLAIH

[2] = target: T2, human LILRB2 expressed on CHOK1 cells (CHOK1-hLILRB2) (human, UniProt Q8N423 22-597); assay: FACS binding to CHOK1-hLILRB2 cells
T2 construct: whole, on cells; also called CHOK1-LILRB2
T2 sequence (Q8N423 22-597): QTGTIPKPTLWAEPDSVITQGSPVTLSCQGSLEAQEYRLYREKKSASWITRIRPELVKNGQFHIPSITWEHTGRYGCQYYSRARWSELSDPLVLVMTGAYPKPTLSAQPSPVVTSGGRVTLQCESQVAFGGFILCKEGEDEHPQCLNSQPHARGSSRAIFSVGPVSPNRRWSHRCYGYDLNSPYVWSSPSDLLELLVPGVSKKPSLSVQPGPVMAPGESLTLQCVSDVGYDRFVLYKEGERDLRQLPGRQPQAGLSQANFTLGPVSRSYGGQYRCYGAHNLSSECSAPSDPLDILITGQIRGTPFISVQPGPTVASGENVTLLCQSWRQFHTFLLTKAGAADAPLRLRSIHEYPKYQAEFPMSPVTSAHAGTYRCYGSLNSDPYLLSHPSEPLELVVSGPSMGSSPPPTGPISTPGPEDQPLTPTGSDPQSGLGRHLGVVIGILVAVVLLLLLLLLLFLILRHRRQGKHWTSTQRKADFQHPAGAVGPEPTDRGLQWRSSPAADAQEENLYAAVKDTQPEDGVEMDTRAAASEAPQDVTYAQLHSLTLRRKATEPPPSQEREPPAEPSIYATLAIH

Binder | binding result [1] | binding result [2] | EC50 [2] [nM] | EC50 [1] [nM]
B1 | no binding | no binding | – | –
B2 | no binding | no binding | – | –
B3 | no binding | no binding | – | –
B4 | no binding | no binding | – | –
B5 | no binding | – | 0.14 | –
B6 | no binding | – | 0.23 | –
B7 | no binding | – | 0.16 | –
B8 | no binding | – | 0.64 | –
B9 | no binding | – | 36.6 | –
B10 | no binding | no binding | – | –
B11 | – | no binding | – | 1.71
B12 | no binding | – | 0.35 | –
B13 | no binding | – | 0.25 | –
B14 | no binding | – | 0.17 | –
B15 | no binding | – | 0.14 | –
B16 | no binding | – | 0.27 | –
B17 | no binding | no binding | – | –
B18 | – | no binding | – | 1.99
B19 | no binding | – | 0.27 | –
B20 | no binding | no binding | – | –
B21 | no binding | no binding | – | –
B22 | no binding | no binding | – | –
